Positions count from the first letter of the chain named. No end group written: not given here.
T1: NgR (Homo sapiens, UniProt Q9BZR6)
T1 construct: expressed in transfected cells; host or cells: COS-7
T1 sequence (Q9BZR6 27-447): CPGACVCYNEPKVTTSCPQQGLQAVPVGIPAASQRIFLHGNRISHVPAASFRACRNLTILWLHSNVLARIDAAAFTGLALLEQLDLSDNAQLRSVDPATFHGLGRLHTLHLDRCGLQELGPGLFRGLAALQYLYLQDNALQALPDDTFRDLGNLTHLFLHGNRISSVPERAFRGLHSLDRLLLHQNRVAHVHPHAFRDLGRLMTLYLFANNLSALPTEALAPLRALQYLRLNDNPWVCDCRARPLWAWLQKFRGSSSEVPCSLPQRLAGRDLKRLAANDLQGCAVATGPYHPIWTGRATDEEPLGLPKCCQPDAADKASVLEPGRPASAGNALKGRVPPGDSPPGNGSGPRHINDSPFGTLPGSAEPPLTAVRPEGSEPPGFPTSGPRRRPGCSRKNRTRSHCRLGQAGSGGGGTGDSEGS

T2: AP-Lingo-1 (Homo sapiens, UniProt Q96FE5)
T2 construct: made in house; NgR mutants: COS-7
T2 sequence (Q96FE5 40-538 limits assumed): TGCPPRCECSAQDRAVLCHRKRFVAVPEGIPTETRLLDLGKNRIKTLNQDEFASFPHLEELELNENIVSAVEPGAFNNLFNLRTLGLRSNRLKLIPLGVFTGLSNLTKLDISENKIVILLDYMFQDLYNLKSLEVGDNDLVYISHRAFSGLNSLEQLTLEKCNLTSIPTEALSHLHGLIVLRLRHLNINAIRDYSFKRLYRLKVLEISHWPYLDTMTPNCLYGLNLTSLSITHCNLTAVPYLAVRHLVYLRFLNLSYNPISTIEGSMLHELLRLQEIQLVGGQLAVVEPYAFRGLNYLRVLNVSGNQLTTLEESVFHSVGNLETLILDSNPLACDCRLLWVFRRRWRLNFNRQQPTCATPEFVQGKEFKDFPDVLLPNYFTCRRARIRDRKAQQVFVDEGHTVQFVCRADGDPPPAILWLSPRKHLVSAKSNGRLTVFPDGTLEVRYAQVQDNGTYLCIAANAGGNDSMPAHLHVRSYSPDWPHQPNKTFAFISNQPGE

T3: AP-B4C (Homo sapiens, UniProt Q9NQC3)
T3 construct: a.a; 950-1018 (AmNg B4C); made in house; host or cells: AP ligand: HEK293T conditioned medium; NgR mutants: COS-7
T3 sequence (Q9NQC3 950-1018): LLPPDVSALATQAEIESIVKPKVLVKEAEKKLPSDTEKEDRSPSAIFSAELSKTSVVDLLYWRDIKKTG

T4: AP-Nogo66 (Homo sapiens, UniProt Q9NQC3)
T4 construct: made in house; NgR mutants: COS-7
T4 sequence (Q9NQC3 1055-1120 limits assumed): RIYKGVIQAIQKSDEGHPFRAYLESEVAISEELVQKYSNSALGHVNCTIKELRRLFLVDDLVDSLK

B1: 89, 90: human NgR1 mutant, listed residues mutated to alanine (protein)
chain: CPGACVCYNEPKVTTSCPQQGLQAVPVGIPAASQRIFLHGNRISHVPAASFRACRNLTILWLAANVLARIDAAAFTGLALLEQLDLSDNAQLRSVDPATFHGLGRLHTLHLDRCGLQELGPGLFRGLAALQYLYLQDNALQALPDDTFRDLGNLTHLFLHGNRISSVPERAFRGLHSLDRLLLHQNRVAHVHPHAFRDLGRLMTLYLFANNLSALPTEALAPLRALQYLRLNDNPWVCDCRARPLWAWLQKFRGSSSEVPCSLPQRLAGRDLKRLAANDLQGCAVATGPYHPIWTGRATDEEPLGLPKCCQPDAADKASVLEPGRPASAGNALKGRVPPGDSPPGNGSGPRHINDSPFGTLPGSAEPPLTAVRPEGSEPPGFPTSGPRRRPGCSRKNRTRSHCRLGQAGSGGGGTGDSEGSGALPSLTCSLTPLGLALVLWTVLGPC
B2: 108, 131: human NgR1 mutant, listed residues mutated to alanine (protein)
chain: B1 chain with A63H, A64S, E82A, R105A
B3: 95, 97: human NgR1 mutant, listed residues mutated to alanine (protein)
chain: B1 chain with A63H, A64S, R69A, D71A

Key:
NgR = target: T1, NgR; assay: AP fusion protein binding to NgR expressing COS-7 cells; details: for NgR Kd (nM): AP fused Amino-Nogo fragments in conditioned media on NgR expressing COS-7 cells, 'No binding at' cells continue on the next line: AmNg A 150 nM, a.a. 1000-1018, a.a. 1005-1018, Amino of NgC 25 nM, a.a. 950-1004 50 nM, Amino of NgB 100 nM
Text: Several alkaline phosphatase (AP) fusion proteins containing various Nogo-A segments derived from regions between the amino terminus and the first hydrophobic segment were examined to identify the mechanism of Amino-Nogo-A action. To generate additional AP fusion proteins, human amino Nogo fragments were amplified and ligated to the pcAP6 vector digested with restriction enzymes EcoRI and XhoI as described (Fournier, A. E., et al., Nature 409:341-346 (2001)). Plasmids were then transfected into HEK293T cells and conditioned media were collected after 7 days. None of these fragments bind with high affinity to non-transfected COS-7 cells. […] This binding is saturable with a Kd indistinguishable from that for AP-Nogo-66 association with NgR (Table I). To better define the region responsible for Amino-Nogo interaction with NgR, a range of truncation mutants of Amino-Nogo were examined as AP fusion proteins. […] In fact, the NgR-interacting segment of Amino-Nogo is fully accounted for in the extreme carboxyl 24 amino acids (aa 995-1018, Amino-Nogo-A-24) (Table I and FIG. 1D). […] We named this domain (aa 995-1013) as Amino-Nogo-A-19.
Binding Kds for AP fused Amino-Nogo fragments were measured by applying conditioned media containing AP fusion protein to NgR expressing COS-7 cells. Bound AP was stained and measured.
It has been recognized that the Amino-Nogo-A protein inhibits non-neuronal cell spreading and axonal outgrowth when the protein is substrate bound (Chen, M. S., et al., Nature 403:434-439 (2000); Fournier, A. E., et al., Nature 409:341-346 (2001)). […] The later domain has been termed Δ20. To determine whether the NgR-interacting aa of Amino-Nogo-A described in Example 1 regulate cell spreading and axonal outgrowth, various fragments were expressed as GST fusion proteins and purified from E. coli. To generate GST fusion proteins, amino Nogo fragments were cloned in pGEX2T (Amersham Pharmacia). Native and soluble GST fusion proteins were expressed and purified as described (GrandPre, T., et al., Nature 403:439-444 (2000)). COS-7 binding assays were done as described (Fournier, A. E., et al., Nature 409:341-346 (2001)). Bound AP to COS-7 cells was measured using NIH image software. Fibroblast spreading and cDRG outgrowth assay were done as described (Fournier, A. E., et al., Nature 409:341-346 (2001)) with some modifications. Briefly, 50 μl of purified GST fusion protein or peptides diluted in PBS was pipetted into polylysine precoated 96 well plates (Becton Dickson Biocoat plates) and dried overnight at room temperature. For fibroblast spreading assay, subconfluent COS-7 cells were then plated for 1 hour in serum containing medium before fixation and staining with rho damine-phalloidin.

AP-Lingo-1 = target: T2, AP-Lingo-1; assay: Binding of AP-Lingo-1 to COS-7 cells expressing NgR mutants; design: key: ++: WT level; +: weaker than wild type; trace binding; −: no binding; details: AP-Lingo-1 10 nM; level of binding compared to wild type NgR
Experimental: (§1) FIG. 4A. […] Binding of AP or AP fused NgR ligands to COS-7 cells expressing different NgR mutants as indicated. The concentrations of ligands applied were: AP, 30 nM; AP-Ng66, 5 nM; AP-Ng33, 10 nM; AP-B4C, 10 nM; AP-B4C66, 0.5 nM; AP-Lingo-1, 10 nM; AP-OMGP, 10 nM; AP-MAG, 30 nM. These concentrations are close to the binding Kd of these proteins to NgR so that any […] is reflected linearly in staining.
(§2) FIG. 4B. AP binding of NgR ligands to NgR mutants expressed as percentage of wild type NgR. AP after incubation with AP fused ligands, AP bound to COS-7 cells expressing NgR or NgR mutants were stained and measured.
(§3) To better define how multiple ligands bind to the NgR protein, we examined a series of Ala-substituted NgR for ligand binding activity. NgR mutagenesis was done using the Quick Change Multisite Directed Mutagenesis Kit (Stratagene catalog #200514). Human NgR1 was used as a template. Ala substitutions were generated for each of the charged residues predicted to be solvent accessible at the surface of the ligand binding domain of NgR (Barton, W. A., et al., Embo J. 22:3291-3302 (2003); He, X. L., et al., Neuron 38:177-185 (2003)). We generated mutants in which 1-8 surface residues localized within 5 A of one another were Ala-substituted. Because of the coiling nature of the LRR structure, as residues juxtaposed on the protein surface are commonly separated by approximately 25 residues in the primary structure. In addition to mutations in specific charged surface patches, other mutations were targeted to glycosylation sites and to regions predicted to be involved in ligand binding based on the NgR structure (Barton, W. A., et al., Embo J. 22:3291-3302 (2003); He, X. L., et al., Neuron 38:177-185 (2003)). In addition, a variant corresponding to a human polymorphism was examined (D259N). None of the mutations altered the Leu residues that define the LRR structure itself or the Cys residues critical in the amino and carboxyl terminal capping domains. The vast majority of such Ala surface substitution mutants were expressed as immunoreactive polypeptides with a molecular weight and an expression level indistinguishable from wild type NgR (FIG. 4C and data not shown).
(§4) This collection of 74 individual NgR mutants was interrogated for AP-Nogo-66, AP-Amino-Nogo-B4C, AP-MAG, AP-OMgp, and AP-Lingo-1 binding. AP-Nogo66, AP-MAG, AP-OMGP and AP-Lingo-1 constructs are described elsewhere (Fournier, A. E., et al., Nature 409:341-346 (2001); Liu, B. P., et al., Science 297:1190-1193 (2002); Mi, S., et al., Nat. Neurosci. 7:221-228 (2004); Wang, K. C., et al., Nature 417:941-944 (2002b)). The properties of the NgR mutants fell into one of three major categories (Table II and FIG. 5). A number of Ala substituted NgR polypeptides bound all of the ligands at wild type levels. […] In addition, a significant extent of the concave surface is dispensable for ligand binding.
(§5) Binding of Alanine substituted NgR mutants to NgR ligands were compared to wild type NgR and the levels of binding were categorized as ++ (WT level), + (weaker than wild type), tr (trace binding), − (no binding), N/A (not determined). NgR mutant proteins were also subjected to SDS-PAGE and probed by anti-NgR antibodies. Mutants with expression level similar to WT NgR were labeled as “y”.

AP-B4C66 = assay: Binding of AP-B4C66 to COS-7 cells expressing NgR mutants; design: key: ++: WT level; +: weaker than wild type; trace binding; −: no binding; details: AP-B4C66 0.5 nM; level of binding compared to wild type NgR
Experimental: as §1, §2, §3, §4, §5

AP-MAG = assay: Binding of AP-MAG to COS-7 cells expressing NgR mutants; design: key: ++: WT level; +: weaker than wild type; trace binding; −: no binding; details: AP-MAG 30 nM; level of binding compared to wild type NgR
Experimental: as §1, §2, §3, §4, §5

AP-OMgp = assay: Binding of AP-OMgp to COS-7 cells expressing NgR mutants; design: key: ++: WT level; +: weaker than wild type; trace binding; −: no binding; details: AP-OMGP 10 nM; level of binding compared to wild type NgR
Experimental: as §1, §2, §3, §4, §5

NgR ligands = assay: Binding of alanine substituted NgR mutants to NgR ligands, summary categories; details: AP-Nogo66, AP-B4C, AP-B4C66, AP-Lingo-1, AP-OMgp and AP-MAG; compared to wild type NgR
In short: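 Human NgR1 template; 74 mutants with 1-8 solvent-exposed charged surface residues (within 5 Å) Ala-substituted, plus glycosylation-site mutants and D259N polymorphism. Mutants tested for binding of AP-tagged Nogo66, Amino-Nogo-B4C, B4C66, MAG, OMgp and Lingo-1; each classed as losing all, keeping all, or selective ligand binding.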

AP-B4C = target: T3, AP-B4C; assay: Binding of AP-B4C to COS-7 cells expressing NgR mutants; design: key: ++: WT level; +: weaker than wild type; trace binding; −: no binding; details: AP-B4C 10 nM; level of binding compared to wild type NgR
Experimental: as §1, §2, §3, §4, §5

AP-Nogo66 = target: T4, AP-Nogo66; assay: Binding of AP-Nogo66 to COS-7 cells expressing NgR mutants; design: key: ++: WT level; +: weaker than wild type; trace binding; −: no binding; details: AP-Ng66 5 nM; level of binding compared to wild type NgR
Experimental: as §1, §2, §3, §4, §5

Row | Molecule | NgR Kd (nM) (NgR) | binding to NgR (COS-7 cells expressing NgR) (NgR; qualitative) | Lingo-1 (AP-Lingo-1) | B4C-66 (AP-B4C66) | MAG (AP-MAG) | OMgp (AP-OMgp) | ligand binding category of NgR mutant (Table II) (NgR ligands) | B4C (AP-B4C) | Ng66 (AP-Nogo66)
1 | VVDLLYWRDIKKTG (also: alkaline phosphatase fusion; UniProt Q9NQC3 1005-1018, looked up, fragment) [a.a. 1005-1018, AP fusion protein of Nogo-A aa 1005-1018] | No binding |  |  |  |  |  |  |  | 
2 | MDGQKKNWKDKVVDLLYWRDIKKTG (not fully specified) [Amino of NgC, AP fusion protein of Amino-Nogo residues of Nogo-C] | No binding | fail to associate with NgR-expressing cells |  |  |  |  |  |  | 
3 | B1 |  |  | − | + | − | − | Differential binding | + | +
4 | B2 |  |  | − | + | tr | + | Differential binding | + | +
5 | B3 |  |  | + | + | tr | tr | Differential binding | ++ | +
